B1: p63 oligomerization domain (OD), homo-tetramer (domain or fragment)
chain: DDELLYLPVRGRETYEMLLKIKESLELMQYLPQHTIETYRQQQQQQHQHLLQKQTSIQS
notes: p63 oligomerization domain (OD), wild type; also called p63 OD; p63 homo-OD; source: E. coli, purified; not shown: His10, N-terminal, cleaved

Series [1] deals with the molecule itself. Nature of the series: crystal structure; complexes of OD hetero-tetramer and DARPin mixed 1:2, isolated by SEC, sitting drop at 20 °C. For orientation: SEC sorts molecules by how far they enter the pores of the column.
Series [2] addresses B1. Briefly: NMR titration; [15N,1H] BEST-TROSY spectra at 25 °C; equimolar mixture of unlabelled p63 OD and 15N-Lys-labelled p73 OD, DARPin added at one ratio (2.4:1); 20 mM K2HPO4 pH 7.8, 100 mM KCl, 0.5 mM EDTA. The note with it: both partners purified.

As for B1, the binding result in series [1] is given as “binds”.

B2: p73 oligomerization domain (OD), homo-tetramer (domain or fragment)
chain: DEDTYYLQVRGRENFEILMKLKESLELMELVPQPLVDSYRQQQQLLQR
notes: p73 oligomerization domain (OD), wild type; 15N-labelled on lysine for NMR; also called p73 OD; p73 homo-OD; source: E. coli, purified; not shown: His10, N-terminal, cleaved
As for B2, the binding result in series [1] and in series [2] was “binds” in each case.

B3: p73 oligomerization domain E363K (domain or fragment, UniProt O15350 351-398, looked up)
chain: DEDTYYLQVRGRKNFEILMKLKESLELMELVPQPLVDSYRQQQQLLQR
notes: p73 oligomerization domain (OD), amino acids 351-398, E363K; The p73 chain of m3; also called p73 (amino acids 351–398, E363K); p73 OD E363K; source: E. coli BL21(DE3) Rosetta, purified; not shown: His10, N-terminal, cleaved
As for B3, the binding result in series [1] is listed as “binds”.

The values above are taken from PMC10570377, “DARPins detect the formation of hetero-tetramers of p63 and p73 in epithelial tissues and in squamous cell carcinoma” (Cell Death & Disease, 2023).
